Laboratory results taken from the nanobody polyreactivity screen of Harvey et al. (2022).

Experiment: yeast display, Sf9 membrane polyspecificity reagent, FACS + sequencing; frameworks hold sequencing errors
Summary of the method: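 After 36–48 hours of galactose induction, yeast (Saccharomyces cerevisiae BJ5465) displaying a synthetic nanobody library were stained at 4 °C for 1 hour with 10% biotinylated, detergent-solubilized Sf9 membrane reagent. Streptavidin microbeads enriched the stained cells before FACS sorting into low and high (top ~1%) gates on anti-HA and streptavidin fluorescence. Each clone's polyreactivity label reflects its gate of origin.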
With “QVQLVESGGGLVQAGGSLRLSCAASGYTFYSNAMGWYRQAPGKETELVASIRSRGRSTYYADSVKGRFTISRDNAKNTVYLQMNSLKPEDTAVYYCAALPNKPAVYAYDYWGQGTQVTVSS” the “polyreactivity (PSR sort gate)” value was “low polyreactivity”.
In the case of “QVQLVESGGGLVQAGGSLRLSCAASGYTFYSYAMGWYRQAPGKERELFAAITESGARTYYADSVKGRFTISRDNAKNTVYLQMNSLKPEVTAVYYCAADYAWPLRVTGDYWGQGTQVTVSS”, the “polyreactivity (PSR sort gate)” value is reported as “low polyreactivity”.
For “QVQLVESGGGLVQAGGSLRLSCAASGYTFYSYAMGWYRQEPGKERELVAAIRTGGGTIYADSVKGRFTISRDNAKNTVYLQMNSLKPEDTAVYYCAAESGYPVYTYVSSGDYWGQGTQVTVSS”, the “polyreactivity (PSR sort gate)” value was “low polyreactivity”.
In the case of “QVQLVESGGGLVQAGGSLRLSCAASGYTIGNNAMGWYRQAPGKERELVARIRTNGGTTYYADSVKGRFTISRDYAKNTVYLQMISLKPEDTAVYYCIAYRGYEYDYWGQGTQVTVSS”, the “polyreactivity (PSR sort gate)” value is reported as “low polyreactivity”.
In the case of “QVQLVESGGGLVQAGGSLRLSCAASGYTLTINVMGWYRQAPGKERELVAAITSSGASTNYADSVKGRFTISRDNAKNTVYLQMNSLKPEDTAVYYCNVVNEHQSDFVVPFDYNHWGQGTQVTVSS”, the “polyreactivity (PSR sort gate)” value is reported as “low polyreactivity”.
In the case of “QVQLVESGGGLVQAGGSLRLSCAASGYTSKTYAMGWYRQAPGKERELVAAINWGSGSTYYADSVKGRFTISRDNAKNTVYFQMYSLKPEDTAVYYCAALVYGHRRLVGNLSRGYWGQGTQVTVSS”, the “polyreactivity (PSR sort gate)” value is reported as “high polyreactivity”.
With “QVQLVESGGGLVQAGGSLRLSCAASGYTSSLNAMGWYRQAPGKERELVARITTDGTSTYYADSVKGRFTISRDNANNTVYLQMNSLKPEDTAVYYCAAEYSYVQFGFGYWGQGTQVTVSS” the “polyreactivity (PSR sort gate)” value was “low polyreactivity”.
With “QVQLVESGGGLVQAGGSLRLSCAASGYTVWGYAMGWYRQAPGKERELVADITISGGSTYYADSVKGRFTISRDNAKNTVYLQMNSLKPDDSAVYYCAASRAFSWWLSYDYWGQGTQVTVSS” the “polyreactivity (PSR sort gate)” value was “high polyreactivity”.
For “QVQLVESGGGLVQAGGSLRLSCAASGYTYGTYDMRWYRQAPGKERELVAAFSIGGSTNYADSVKGRFTISRDNAKNTVYLQMNSLKPEDTAVYYCAAEVNVGTLLLSVIVEDGDYWGQGTQVTVSS”, the “polyreactivity (PSR sort gate)” value was “low polyreactivity”.
For “QVQLVESGGGLVQAGGSLRLSCAASGYTYPQNAMGWYIKAPGKERDLFAAISRSGGSTNYADSVKGRNTISRDNAKNTVYLQMNILKPEDTAVYYCARYNYTRQTRVEYGYWGQCTQVTVSS”, the “polyreactivity (PSR sort gate)” value was “high polyreactivity”.
For “QVQLVESGGGLVQAGGSLRLSCAASGYYAMGWYRQAPGKERELVAAITWSGGTTYYADSVKGRFTISRDNAKNTVYLQMNSLKPEDTAVYYCNADFVRYTRHKKYYYWGQGTQVTVSS”, the “polyreactivity (PSR sort gate)” value was “low polyreactivity”.
In the case of “QVQLVESGGGLVQAGGSLRLSCAASLIFANYAMGWYRQAPGKERELVAAISSVGRTYYADSVKGRFTISRDNAKNTVYLQMNSLKPEDTAVYYCAAESWFKYDYWGQGTQVTVSS”, the “polyreactivity (PSR sort gate)” value is reported as “low polyreactivity”.
For “QVQLVESGGGLVQAGGSLRLSCAASRFIFWSYAMGWYIQAPGTEREMVAAIDMTGGSTYYADYVKGRFTISRDNAKNTVYLQMNSLKPEDTAVYYCNADGDTYAFTNSDSGFDYWGQGTQVTVSS”, the “polyreactivity (PSR sort gate)” value was “low polyreactivity”.
In the case of “QVQLVESGGGLVQAGGSLRLSCAASRFIFWSYAMGWYRQAPGKERELVAAISWRGGSTYYADSVKGRFTISRDNAKNTVYLQMNSLKPEDTAVYYCAAESYNGYDYWGQGTQVTVSS”, the “polyreactivity (PSR sort gate)” value is reported as “high polyreactivity”.
In the case of “QVQLVESGGGLVQAGGSLRLSCAASRFLFWSYAMGWYRQAPGKERELVAAISWRGGSTYYADSVKGRFSISRDTAKNTVYLQMNSLKPEDTAVYYCAAERYNGYDYWGQGTQVTVSS”, the “polyreactivity (PSR sort gate)” value is reported as “high polyreactivity”.
With “QVQLVESGGGLVQAGGSLRLSCAASRIFRGYAMGWYRQAPGKERELVAAIRRGGSTNYADSVKGRFTIARDNAKNTVYLQMNSLKPEDTAVYYCNAYLYFPRYDYWGQGTQVTVSS” the “polyreactivity (PSR sort gate)” value was “high polyreactivity”.
With “QVQLVESGGGLVQAGGSLRLSCAASRIIFTHNAMGWYRQAPGKERELVAAISWSGGSTYYADSVNGRFTISRDNAKNTVYIEMNSLKPEDTAVYYCAAPYFTYGQDDDDYWGQGTQVTVSS” the “polyreactivity (PSR sort gate)” value was “low polyreactivity”.
With “QVQLVESGGGLVQAGGSLRLSCAASRRIFWSNAMGWYRQEPGKERELVAAISRRGGRTYYADSVKGRFTISLDNAKNSVYLQMNSLKPEDTAVYYCAADGTADYDYWGQGTQVTVSS” the “polyreactivity (PSR sort gate)” value was “high polyreactivity”.
With “QVQLVESGGGLVQAGGSLRLSCAASRRTSRYYAMGWYRQAPGKETEFVAAINFSGGRTYYADSVKGRFTISRDNAKNSVYLQMNSLKPEDTAVYYCATQDYRYRYSRFGYWGQGTLVTVSS” the “polyreactivity (PSR sort gate)” value was “high polyreactivity”.
In the case of “QVQLVESGGGLVQAGGSLRLSCAASRSIFSIYAMGWYRQAPGKERELVAAITWGGGSTYYADSVKGRFTISRDNAKNTVYLQMNSLKPEDTALYYCAADSLTWYGTYYYWGQGTQVTVSS”, the “polyreactivity (PSR sort gate)” value is reported as “high polyreactivity”.
With “QVQLVESGGGLVQAGGSLRLSCAASVFIFGLYAMGWYRQAPGKERELVAAISRSGGSTYYADSVKGRFTISRDNEKNTVYLQMNSLKPEDTAVYYCAKRASPRQAGPIYDSWGQGTQVTVSS” the “polyreactivity (PSR sort gate)” value was “high polyreactivity”.
For “QVQLVESGGGLVQAGGSLRLSCAASVFTVYGMGWYRQAPGKERELVAAISTGGNTYYADSVKGRFTISRDNAKNTVYLQMNSLKPEDTAVYYCNRRYRYYGLWYGYWGQGTQVTVSS”, the “polyreactivity (PSR sort gate)” value was “high polyreactivity”.
In the case of “QVQLVESGGGLVQAGGSLRLSCAASVGTFSPNTMGWYRQAPGKERELVAAISSSGSTSYADSVKGRFTISRDNAKNTVYLQMNSLKPEDTAGYFCNADDTISYYASGFDNYDYWGQGTQVTVSS”, the “polyreactivity (PSR sort gate)” value is reported as “low polyreactivity”.
For “QVQLVESGGGLVQAGGSLRLSCAASVGWYRQAPGKERELVAAISFSGGSTYYADSVKGRFTISRDNAKNTVYLQMNSLKPEDTAVYYCAAENFWQTKEYDYWGQGTQVTVSS”, the “polyreactivity (PSR sort gate)” value was “low polyreactivity”.
In the case of “QVQLVESGGGLVQAGGSLRLSCAASVLILYYYAMGWYRQAPGKERELVAAISRRDGDTYYADSVKGRFTISRDNAKNTVYLQMNSLKPEDTAVYYCAADRRWSWVFRDDYWGQGTQVTVSS”, the “polyreactivity (PSR sort gate)” value is reported as “low polyreactivity”.
For “QVQLVESGGGLVQAGGSLRLSCAASVRIFDYNAMGWYRQAPGKERELVAAITSGGSTNYADSVKGRFTISRDNAKNTVYLQMNSLKPEDTAVYYCNAEPETTIDYWGQGTQVTVSS”, the “polyreactivity (PSR sort gate)” value was “low polyreactivity”.
In the case of “QVQLVESGGGLVQAGGSLRLSCAASVRIFWPYAMGWYRQAPGKERELVAAITLSGGSTYYADSVKGRFTISRDNAKNTVYLQKNCMKPVETAVYYSAGDHKRTWGGDQGKSHGYWGQGTKVTVSS”, the “polyreactivity (PSR sort gate)” value is reported as “low polyreactivity”.
With “QVQLVESGGGLVQAGGSLRLSCAASVRISESNDMGWYRQAPGKERELVAAISSSGGSTYYADSVKGRFTISRENAKNTVYLQMNSLKPEDTAVYYCNAVYYRTVLKIGVYEYDFWGQGTQVTVSW” the “polyreactivity (PSR sort gate)” value was “low polyreactivity”.
For “QVQLVESGGGLVQAGGSLRLSCAASVRTFYIYAMGWYIQAHGKERELVAAITSVGSTNYADSVKGRFTISRDNAKNTVNLQMNSLKPEDTAVYYCAAESTEGTSGDYDYWGQGTQVTVSS”, the “polyreactivity (PSR sort gate)” value was “low polyreactivity”.
For “QVQLVESGGGLVQAGGSLRLSCAASVRTLPSYAMGWYRQAPGKERELVAAISQSGGSTYYADSVKGRFTISRDNAKNTVYLQMNSLKPEDTAVYYCNAGYYYKYSPRRFDYWGQGTQVTVSS”, the “polyreactivity (PSR sort gate)” value was “high polyreactivity”.
For “QVQLVESGGGLVQAGGSLRLSCAASVRTSRLYAMGWYRQAPGKERELDASITRGGSTYADSVKGRFTISRDNAKNTVYLQMNSLKPEDTAVDYCNAELYVPPYDDDYWGQGTQVTVSS”, the “polyreactivity (PSR sort gate)” value was “high polyreactivity”.
With “QVQLVESGGGLVQAGGSLRLSCAASVSTFGRYVMGWYRQAPGKERELVAAISKNAGSTYYADSVKGRFTISRDNAKNTVYVQMNSLKPEDTAVYYCAADWRTKGYDSLGQGTQVTVSS” the “polyreactivity (PSR sort gate)” value was “high polyreactivity”.
For “QVQLVESGGGLVQAGGSLRLSCAASVSTFPQYAMGWYRQAPGKERELVAAISWSGGRTYYADSVKGRFTISRDNAKNTVYLQMNSLKPEDTAVFYCAATYPGQYGYNYWGQGTQVTVSS”, the “polyreactivity (PSR sort gate)” value was “high polyreactivity”.
For “QVQLVESGGGLVQAGGSLRLSCAASVSTFSYNYMGWYRQAPRKERELDAAISSGGSTKYADSVKGRFRISRDNAKNTVYLQMNSLKPEDTAVYYCIKDYPQNPLPASSYYLYDYWGQGTQVTVSS”, the “polyreactivity (PSR sort gate)” value was “high polyreactivity”.
For “QVQLVESGGGLVQAGGSLRLSCAASVYAMGWYRQAPGKERELVAAITDSGSTNYADSVKGRFTISRDNAKNTVYLQMNTLKPEDTAVYYCNADPYYATGSWARLPLYQYDYWGQGTQVTVSS”, the “polyreactivity (PSR sort gate)” value was “low polyreactivity”.
In the case of “QVQLVESGGGLVQAGGSLRLSCAASYNAMGWYRQAPGKEREFVAGITQSGGSTYYADSVKGRFTISRDNAKNTVYLQMNSLKAEDTAVYYCAKRLYKWGQGTQVTVSS”, the “polyreactivity (PSR sort gate)” value is reported as “low polyreactivity”.
With “QVQLVESGGGLVQAGGSLRLSCAATARNFYRYAMAWYRQAPGKERELVARITSAGSTDYADSVKGRFTISRDNAKNTVYLQMNSLKPEDTAVYYCAAFGFSYRTFWYDYWGQGTQVTVSS” the “polyreactivity (PSR sort gate)” value was “high polyreactivity”.
For “QVQLVESGGGLVQAGGSLRLSCAATGFIFRYYAMGWYSQAPGKERELVATISSGGGTHYADSVKGRYSISRDNAKNTVYLKMNSLKPEDTAVYYCNARGYRRLRTRVDYWGQGTQVTVSS”, the “polyreactivity (PSR sort gate)” value was “high polyreactivity”.
In the case of “QVQLVESGGGLVQAGGSLRLSCAATGFTFASYAMRLYRQAAGKETELVAAITWGTGTTSYADSVKGRFTISRDNAKNTVYLQMNSLKPEDTAVYYCATRFRPITYRRRYDYWGQGTQVTVSS”, the “polyreactivity (PSR sort gate)” value is reported as “low polyreactivity”.
In the case of “QVQLVESGGGLVQAGGSLRLSCAATGGTIYYYAMGWYRQAPGKERELVAAISTSGTSTYYADSVKGRFTISRDNAKNTVYLQMNSLKPEDTAVYYCAARGLRVSSRGYYWGQGTQVTVSS”, the “polyreactivity (PSR sort gate)” value is reported as “high polyreactivity”.
With “QVQLVESGGGLVQAGGSLRLSCAATGITFQPYTMGWYRQAPGKERELVASISIRGSRTYYADSVKGRFTISRDNAKNTVYLQMNSLKPEDTAVYYCNAPYNHVWAHSYWYDYWGQGTQVTVSS” the “polyreactivity (PSR sort gate)” value was “high polyreactivity”.
